Data from PMC3248800.

Target: αβ T cell receptor A6 (human)
Test: SPR

Substance	Kd [µM]	dH [kcal/mol]
Tel1p-HLA-A2 complex (S. cerevisiae Tel1p peptide … presented by wild-type HLA-A*0201) (from UniProt P61769 21-119) (peptide-MHC)	41	-3
Tel1p-HLA-A2 (A150P) complex (from UniProt P61769 21-119) (peptide-MHC)	5	
